The text below walks through data of the Immune Epitope Database (IEDB).

The term pKd denotes −log10 of the Kd, conventionally taken in molar units.

pKd: −log10 of the molar value.

One experiment has as its target HLA-B*15:02. The experiment in a line: IEDB peptide-MHC binding, purified MHC/competitive/fluorescence; filed as Kd, often an IC50 or EC50 that approximates it; ≥ and ≤ were set here for values at or beyond the usual limits of such assays. To be noted: source organism: Giardia lamblia ATCC 50803.
For another experiment, the target named is HLA-B*38:01. The experiment in a line: IEDB peptide-MHC binding, purified MHC/competitive/radioactivity; filed as Kd, often an IC50 or EC50 that approximates it; ≥ and ≤ were set here for values at or beyond the usual limits of such assays. The following applies: source organism: Homo sapiens.
Experiment [1] addresses HLA-B*48:01. The experiment in a line: IEDB peptide-MHC binding, purified MHC/competitive/fluorescence; filed as Kd, often an IC50 or EC50 that approximates it; ≥ and ≤ were set here for values at or beyond the usual limits of such assays. The following applies: source organism: Pleistophora sp. LS.
In the next experiment the target is HLA-A*26:01. Described as above. The following applies: source organism: Pleistophora sp. LS.
Experiment [2] deals with HLA-B*08:03. The description is as above. The following applies: source organism: Pleistophora sp. LS.
The target of experiment [3] is HLA-A*11:01. The experiment is described as above. The following applies: source organism: Pleistophora sp. LS.
In experiment [4] the target is HLA-B*07:02. Described as above. The following applies: source organism: Pleistophora sp. LS.
The target of experiment [5] is HLA-B*15:17. The description is as above. To be noted: source organism: Pleistophora sp. LS.
Experiment [6] concerns the target HLA-A*01:01. The experiment is described as above. To be noted: source organism: Pleistophora sp. LS.
Experiment [7] concerns the target HLA-B*58:01. The description is as above. To be noted: source organism: Pleistophora sp. LS.
The target in experiment [8] is HLA-A*02:01. The experiment is described as above. The following applies: source organism: Pleistophora sp. LS.
The next experiment has as its target HLA-A*68:02. The description is as above.
Experiment [9] has as its target HLA-B*18:01. The experiment is described as above. To be noted: source organism: Pleistophora sp. LS.
The target in experiment [10] is HLA-B*15:09. Described as above. The following applies: source organism: Pleistophora sp. LS.
The target in experiment [11] is HLA-B*27:05. The description is as above. To be noted: source organism: Pleistophora sp. LS.
The target in experiment [12] is HLA-B*08:02. Described as above. To be noted: source organism: Pleistophora sp. LS.
In another experiment the target is HLA-A*02:03. Described as above. To be noted: source organism: Pleistophora sp. LS.
The next experiment deals with HLA-B*35:01. Described as above. To be noted: source organism: Pleistophora sp. LS.
Experiment [13] deals with HLA-B*39:01. Described as above. The following applies: source organism: Pleistophora sp. LS.
The target of a further experiment is HLA-A*30:01. The experiment is described as above. To be noted: source organism: Pleistophora sp. LS.
The target of experiment [14] is HLA-A*31:01. Described as above. To be noted: source organism: Pleistophora sp. LS.
Experiment [15] has as its target HLA-B*40:01. The experiment is described as above. The following applies: source organism: Pleistophora sp. LS.
Experiment [16] deals with HLA-B*57:01. Described as above. The following applies: source organism: Pleistophora sp. LS.
In experiment [17] the target is HLA-B*48:01. As to the kind of experiment: IEDB peptide-MHC binding, purified MHC/direct/fluorescence; filed as Kd, often an IC50 or EC50 that approximates it; ≥ and ≤ were set here for values at or beyond the usual limits of such assays. The following applies: source organism: Marburg virus - Musoke, Kenya, 1980.
Experiment [18] addresses HLA-B*08:03. The description is as above. The following applies: source organism: Orthomarburgvirus marburgense.
The target in experiment [19] is HLA-A*11:01. The description is as above. To be noted: source organism: Marburg virus - Musoke, Kenya, 1980.
A further experiment deals with HLA-A*26:03. The experiment is described as above. The following applies: source organism: Orthomarburgvirus marburgense.
Experiment [20] addresses HLA-B*07:02. The description is as above. The following applies: source organism: Marburg virus - Musoke, Kenya, 1980.
Experiment [21] has as its target HLA-B*15:17. The description is as above. The following applies: source organism: Marburg virus - Musoke, Kenya, 1980.
In experiment [22] the target is HLA-A*01:01. The description is as above. To be noted: source organism: Marburg virus - Musoke, Kenya, 1980.
Experiment [23] concerns the target HLA-B*58:01. Described as above. The following applies: source organism: Marburg virus - Musoke, Kenya, 1980.
Experiment [24] deals with HLA-A*02:01. The experiment is described as above. To be noted: source organism: Marburg virus - Musoke, Kenya, 1980.
For a further experiment, the target named is HLA-A*26:02. The description is as above. To be noted: source organism: Orthomarburgvirus marburgense.
The target in experiment [25] is HLA-B*18:01. The experiment is described as above. The following applies: source organism: Marburg virus - Musoke, Kenya, 1980.
Experiment [26] concerns the target HLA-B*15:09. The experiment is described as above. The following applies: source organism: Orthomarburgvirus marburgense.
A further experiment deals with HLA-A*69:01. The experiment is described as above. The following applies: source organism: Marburg virus - Musoke, Kenya, 1980.
For experiment [27], the target named is HLA-B*27:05. The description is as above. To be noted: source organism: Marburg virus - Musoke, Kenya, 1980.
The target in experiment [28] is HLA-B*08:02. The experiment is described as above. To be noted: source organism: Orthomarburgvirus marburgense.
The target in a further experiment is HLA-B*44:02. The experiment is described as above. The following applies: source organism: Marburg virus - Musoke, Kenya, 1980.
Experiment [29] addresses HLA-B*39:01. The experiment is described as above. To be noted: source organism: Orthomarburgvirus marburgense.
Experiment [30] concerns the target HLA-A*31:01. Described as above. The following applies: source organism: Marburg virus - Musoke, Kenya, 1980.
The target of experiment [31] is HLA-B*40:01. Described as above. The following applies: source organism: Marburg virus - Musoke, Kenya, 1980.
Experiment [32] deals with HLA-B*57:01. The description is as above. The following applies: source organism: Marburg virus - Musoke, Kenya, 1980.

Take TLAHTHAAY: in the experiment with HLA-B*15:02, the pKd was 7.17.
On to SHETVTIEL, for which, in the experiment with HLA-B*38:01, the pKd is 5.61.
For VELQIGWTV, the pKd with HLA-B*48:01 [1], in the experiment with HLA-A*26:01, with HLA-B*08:03 [2], with HLA-A*11:01 [3], with HLA-B*07:02 [4] and with HLA-B*15:17 [5] was at most 4.70 in each case. For the same sequence, the negative-log Kd (pKd) with HLA-A*01:01 [6] was at most 4.70; with HLA-B*58:01 [7], at most 4.70; with HLA-A*02:01 [8], 6.62; in the experiment with HLA-A*68:02 (source organism: Pleistophora sp. LS), at most 4.70; with HLA-B*18:01 [9], at least 9.00; in the experiment with HLA-B*15:09 [10], at most 4.70. Besides, the pKd with HLA-B*27:05 [11] is at most 4.70; with HLA-B*08:02 [12] it was at most 4.70; with HLA-A*02:03 it was at most 4.70; in the experiment with HLA-B*35:01, at most 4.70; with HLA-B*39:01 [13], 6.02; in the experiment with HLA-A*30:01, at most 4.70. In addition, the pKd was at most 4.70 with HLA-A*31:01 [14], 7.40 with HLA-B*40:01 [15] and at most 4.70 in the experiment with HLA-B*57:01 [16].
As to SEINNLNLT, the pKd with HLA-B*48:01 [17], with HLA-B*08:03 [18], with HLA-A*11:01 [19], with HLA-A*26:03, in the experiment with HLA-B*07:02 [20] and in the experiment with HLA-B*15:17 [21] was at most 4.70 in each case. Besides, the pKd with HLA-A*01:01 [22] is at most 4.70; in the experiment with HLA-B*58:01 [23], at most 4.70; with HLA-A*02:01 [24], at most 4.70; with HLA-A*26:02 it was at most 4.70; with HLA-B*18:01 [25] it was 5.09; in the experiment with HLA-B*15:09 [26], at most 4.70. In addition, the pKd with HLA-A*69:01, with HLA-B*27:05 [27], with HLA-B*08:02 [28], with HLA-B*44:02, in the experiment with HLA-B*39:01 [29] and with HLA-A*31:01 [30] was at most 4.70 in each case. In addition, the pKd with HLA-B*40:01 [31] was 5.15; with HLA-B*57:01 [32], at most 4.70; with HLA-A*68:02 (source organism: Orthomarburgvirus marburgense), at most 4.70.
